Measured values taken from article PMC4739761, “AMPylation matches BiP activity to client protein load in the endoplasmic reticulum” (eLife, 2015).
Where no end group is shown, it is not given here.

B2: hamster BiP (27-654, with a His6-tag), unmodified (natural protein)
chain: not shown
notes: BiP (GRP78), Chinese hamster (Cricetulus griseus), residues 27-654; numbers count on the precursor with its signal peptide (mature BiP is 19-654); also called wildtype (wt) BiP; GRP78; source: E. coli M15, purified (Ni-NTA); unmodified BiP from mock in vitro AMPylation reactions without enzyme served as control in the functional assays; not shown: His6, N-terminal, kept
B3: hamster BiP (27-654, with a His6-tag) AMPylated in vitro to completion on Thr518 (natural protein)
chain: not shown
modifications: AMPylated threonine at 518 (single AMP)
notes: BiP (GRP78), Chinese hamster (Cricetulus griseus), residues 27-654; numbers count on the precursor with its signal peptide (mature BiP is 19-654); also called BiP-AMP; AMPylated BiP; source: E. coli M15, purified (Ni-NTA); not shown: His6, N-terminal, kept
B4: lucifer yellow-labeled BiP substrate peptide (HTFPAVLGSC) (peptide)
peptide: HTFPAVLGSC
modifications: also: lucifer yellow label, position not given here
notes: well-characterized BiP substrate peptide; also called LY-labeled substrate peptide; fluorescently-labeled substrate peptide

Columns and labels:
Conditions in all cases: both partners purified
[1] = biological target: B3; experiment: fluorescence polarisation; competitive dissociation: pre-formed complex of BiP or BiP-AMP (40 µM) and LY-labeled peptide (1 µM) in 1 mM ADP, 400-fold excess (0.4 mM) of unlabeled peptide added at t = 0; single phase decay fit of the first 60 min
[2] = biological target: B2; experiment: as above
[3] = biological target: B4; experiment: as above
[4] = biological target: B3; experiment: fluorescence polarisation; steady state: 1 µM lucifer yellow-labeled peptide with BiP or BiP-AMP at 0-40 µM, 1 mM ADP, 24 hr at 30°C, FP buffer (37.5 mM HEPES-KOH pH 7.4, 125 mM KCl, 7 mM MgCl2, 0.5 mM CaCl2, 125 mM imidazole, 0.05% Triton X-100); read at room temperature
[5] = biological target: B2; experiment: as above

B1: unlabeled substrate peptide (HTFPAVL) (peptide)
peptide: HTFPAVL
notes: also called unlabeled peptide
Question: Does B1 bind [1]?
Answer: binds

Question: Does B1 bind [2]?
Answer: binds

Question: With B2 as the binder, how does the “half-life (t1/2) of the complex” value [3] read?
Answer: 19.3 min

Question: For B3, which “half-life (t1/2) of the complex” value [3] is on record?
Answer: 3.3 min

Question: Which Kd [4] does the source give for B4 here?
Answer: 11.5 µM

Question: And the Kd [5]?
Answer: 16.7 µM

Question: What about the koff [1] of the same binder?
Answer: 0.00353 s⁻¹

Question: And the koff [2]?
Answer: 0.000617 s⁻¹
